Numbering of substitutions follows the chain as printed.
T1: GRP20 (Arabidopsis thaliana, UniProt Q7DV38 1-153)
T1 sequence: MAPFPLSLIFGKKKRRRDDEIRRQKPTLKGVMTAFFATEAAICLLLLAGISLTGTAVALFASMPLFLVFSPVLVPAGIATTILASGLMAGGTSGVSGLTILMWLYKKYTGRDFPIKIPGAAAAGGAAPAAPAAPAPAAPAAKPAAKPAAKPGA

T2: GRP20ΔRBD (Arabidopsis thaliana, UniProt Q7DV38 1-153, del92-115)
T2 sequence: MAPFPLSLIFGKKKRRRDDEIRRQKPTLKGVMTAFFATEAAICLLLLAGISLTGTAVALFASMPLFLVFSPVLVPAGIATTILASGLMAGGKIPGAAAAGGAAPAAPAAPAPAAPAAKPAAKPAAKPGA

T3: GRP20 (RBDm) (Arabidopsis thaliana, UniProt Q7DV38 1-153, M102A;W103A;Y105A;K106A;K107A)
T3 sequence: T1 sequence with M102A, W103A, Y105A, K106A, K107A

T4: GRP20ΔHDR (Arabidopsis thaliana, UniProt Q7DV38 1-118)
T4 sequence: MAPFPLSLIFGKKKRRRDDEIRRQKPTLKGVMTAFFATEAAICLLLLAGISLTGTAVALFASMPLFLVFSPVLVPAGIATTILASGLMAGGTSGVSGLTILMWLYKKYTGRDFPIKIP


What was measured:
Test in all cases: EMSA; Probes: 400 fmol RNA, 17 ug protein, 1x binding buffer (Molecular Probes E33075 kit), room temp 30 min, 5% native PAGE, SYBR Green; pre-mRNA: 500 ng RNA in 10 mM HEPES, 150 mM NaCl, 3 mM EDTA, 2 mM DTT, 10% glycerol, 1 mM PMSF, room temp 30 min; pH not stated
Settings in all cases: protein: recombinant; tags: N-terminal His6-SUMO
GRP20 = target: T1, GRP20
GRP20ΔRBD = target: T2, GRP20ΔRBD
GRP20 (RBDm) = target: T3, GRP20 (RBDm)
GRP20ΔHDR = target: T4, GRP20ΔHDR

Row | Binder | binding result (GRP20) | binding result (GRP20ΔRBD) | binding result (GRP20 (RBDm)) | binding result (GRP20ΔHDR)
1 | AUGAUAAUGCC (ssRNA) [AP1m-probe] | no binding |  |  | 
2 | UUGAUUAUGU (ssRNA) [P2 (ES_C2)] | binds |  |  | 
3 | AGGAGAAGGCC (ssRNA) [AP1-probe] | binds |  |  | 
4 | AUAUAUCUUU (ssRNA) [P3 (A3SS)] | binds |  |  | 
5 | GAAGAAGAAGAAG (ssRNA) [P1 (GA-rich consensus ES_C1)] | binds | no binding | no binding | binds
